For one substance, inhibition of acidified serum lysis of PNH-like (AET-treated) erythrocytes, IC50 results are on record in patent US20250170316A1.

The target in the test is complement factor H present in serum (human) (UniProt P08603). Briefly: cell-based or functional assay.
Sequence of UniProt P08603 (P08603 19-1231 limits assumed): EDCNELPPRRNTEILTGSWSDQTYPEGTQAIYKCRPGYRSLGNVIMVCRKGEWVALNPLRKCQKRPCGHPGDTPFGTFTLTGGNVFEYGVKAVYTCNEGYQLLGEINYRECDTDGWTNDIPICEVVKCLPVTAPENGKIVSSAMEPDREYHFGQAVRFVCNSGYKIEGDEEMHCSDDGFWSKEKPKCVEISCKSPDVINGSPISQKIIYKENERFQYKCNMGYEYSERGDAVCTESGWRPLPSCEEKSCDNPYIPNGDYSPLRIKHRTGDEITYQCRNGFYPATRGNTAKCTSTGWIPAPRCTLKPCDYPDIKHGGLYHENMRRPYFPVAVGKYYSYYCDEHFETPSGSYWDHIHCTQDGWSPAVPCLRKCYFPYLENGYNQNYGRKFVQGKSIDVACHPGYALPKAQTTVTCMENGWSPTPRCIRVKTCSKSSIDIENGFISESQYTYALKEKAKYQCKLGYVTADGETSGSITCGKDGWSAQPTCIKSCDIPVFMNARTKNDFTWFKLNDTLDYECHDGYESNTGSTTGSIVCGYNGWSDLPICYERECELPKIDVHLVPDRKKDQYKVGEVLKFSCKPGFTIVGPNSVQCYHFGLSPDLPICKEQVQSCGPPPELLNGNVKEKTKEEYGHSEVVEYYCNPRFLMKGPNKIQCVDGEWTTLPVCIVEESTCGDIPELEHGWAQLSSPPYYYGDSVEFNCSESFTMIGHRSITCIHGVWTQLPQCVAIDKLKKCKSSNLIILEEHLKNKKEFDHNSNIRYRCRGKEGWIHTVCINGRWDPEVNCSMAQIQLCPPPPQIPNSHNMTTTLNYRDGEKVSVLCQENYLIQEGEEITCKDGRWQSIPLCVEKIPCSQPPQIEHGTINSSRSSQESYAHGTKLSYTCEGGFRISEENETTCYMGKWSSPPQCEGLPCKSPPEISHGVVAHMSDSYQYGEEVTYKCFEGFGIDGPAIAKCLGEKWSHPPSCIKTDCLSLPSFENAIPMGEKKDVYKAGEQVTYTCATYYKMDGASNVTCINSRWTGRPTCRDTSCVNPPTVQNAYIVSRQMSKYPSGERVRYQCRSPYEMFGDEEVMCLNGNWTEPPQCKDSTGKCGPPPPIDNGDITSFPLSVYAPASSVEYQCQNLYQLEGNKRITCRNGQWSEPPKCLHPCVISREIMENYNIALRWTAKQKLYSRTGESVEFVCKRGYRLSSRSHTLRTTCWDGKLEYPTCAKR

“PspCN (residues 37-140 of pneumococcal surface protein C, PspC, of Streptococcus pneumoniae strain D39)” had an inhibition of acidified serum lysis of PNH-like (AET-treated) erythrocytes, IC50 of 27 nM.
